Test results: PMC5300068 (2017)

B1: MASP-1 (protein)
chain: HTVELNNMFGQIQSPGYPDSYPSDSEVTWNITVPDGFRIKLYFMHFNLESSYLCEYDYVKVETEDQVLATFCGRETTDTEQTPGQEVVLSPGSFMSITFRSDFSNEERFTGFDAHYMAVDVDECKEREDEELSCDHYCHNYIGGYYCSCRFGYILHTDNRTCRVECSDNLFTQRTGVITSPDFPNPYPKSSECLYTIELEEGFMVNLQFEDIFDIEDHPEVPCPYDYIKIKVGPKVLGPFCGEKAPEPISTQSHSVLILFHSDNSGENRGWRLSYRAAGNECPELQPPVHGKIEPSQAKYFFKDQVLVSCDTGYKVLKDNVEMDTFQIECLKDGTWSNKIPTCKIVDCRAPGELEHGLITFSTRNNLTTYKSEIKYSCQEPYYKMLNNNTGIYTCSAQGVWMNKVLGRSLPTCLPVCGLPKFSRKLMARIFNGRPAQKGTTPWIAMLSHLNGQPFCGGSLLGSSWIVTAAHCLHQSLDPEDPTLRDSDLLSPSDFKIILGKHWRLRSDENEQHLGVKHTTLHPQYDPNTFENDVALVELLESPVLNAFVMPICLPEGPQQEGAMVIVSGWGKQFLQRFPETLMEIEIPIVDHSTCQKAYAPLKKKVTRDMICAGEKEGGKDACAGDSGGPMVTLNRERGQWYLVGTVSWGDDCGKKDRYGVYSYIHHNKDWIQRVTGVRN
B2: MASP-2 (protein)
chain: TPLGPKWPEPVFGRLASPGFPGEYANDQERRWTLTAPPGYRLRLYFTHFDLELSHLCEYDFVKLSSGAKVLATLCGQESTDTERAPGKDTFYSLGSSLDITFRSDYSNEKPFTGFEAFYAAEDIDECQVAPGEAPTCDHHCHNHLGGFYCSCRAGYVLHRNKRTCSALCSGQVFTQRSGELSSPEYPRPYPKLSSCTYSISLEEGFSVILDFVESFDVETHPETLCPYDFLKIQTDREEHGPFCGKTLPHRIETKSNTVTITFVTDESGDHTGWKIHYTSTAQPCPYPMAPPNGHVSPVQAKYILKDSFSIFCETGYELLQGHLPLKSFTAVCQKDGSWDRPMPACSIVDCGPPDDLPSGRVEYITGPGVTTYKAVIQYSCEETFYTMKVNDGKYVCEADGFWTSSKGEKSLPVCEPVCGLSARTTGGRIYGGQKAKPGDFPWQVLILGGTTAAGALLYDNWVLTAAHAVYEQKHDASALDIRMGTLKRLSPHYTQAWSEAVFIHEGYTHDAGFDNDIALIKLNNKVVINSNITPICLPRKEAESFMRTDDIGTASGWGLTQRGFLARNLMYVDIPIVDHQKCTAAYEKPPYPRGSVTANMLCAGLESGGKDSCRGDSGGALVFLDSETERWFVGGIVSWGSMNCGEAGQYGVYTKVINYIPWIENIISDF

Biological target: the molecule itself
Assay: AUC

Row | Protein | Kd [nM]
1 | B1 | < 10
2 | B2 | < 10
